Data published in patent US20170081417A1 (Kyowa Kirin, published 2017).
Numbering of substitutions follows the chain as printed.

T1: human OX40 (CD134), full length, expressed on cells (activated human T cells); EL4-OX40 and CHO-OX40 … (human, UniProt P43489 29-277)
T1 construct: also called TNFRSF4; surface expressed OX40
T1 sequence: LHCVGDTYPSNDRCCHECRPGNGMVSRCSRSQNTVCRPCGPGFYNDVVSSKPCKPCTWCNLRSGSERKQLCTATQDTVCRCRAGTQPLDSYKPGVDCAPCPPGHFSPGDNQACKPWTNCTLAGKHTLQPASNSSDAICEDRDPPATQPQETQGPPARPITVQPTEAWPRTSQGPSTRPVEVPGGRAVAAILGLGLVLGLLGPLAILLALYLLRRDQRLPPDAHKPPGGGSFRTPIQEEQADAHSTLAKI

B1: 112Y55 human anti-human OX40 monoclonal antibody (hybridoma ATCC No. PTA-7220) (antibody, V domains shown)
VH: QITLKESGPTLVKPTQTLTLSCTFSGFSLSTSGVGVGWIRQPPGKALEWLALIHWDDAERYSPSLKSRLTITKDTSKNQVVLTMTNMDLVDTATYYCAHTRGAFDIWGQGTMVTVSS
VL: EIVLTQSPGTLSLSPGERAILSCRASQSVSSSFLAWYQQKPGQAPRLLIYGAFSRATGIPDRFSGSGSGTDFTLTISRLEPEDFAVYYCQQYDSSRTFGQGTKVEIK
B2: 112Y131 human anti-human OX40 monoclonal antibody (hybridoma ATCC No. PTA-7218) (antibody, V domains shown)
VH: B1 VH with S21T, H54Y, A58H, E59S, R60P, L89P, H99R
VL: EIVLTQSPATLSLSPGERATLSCRASQGVSSYLAWYQQKPGQAPRLLIYDASNRATGIPARFSGSGPGTDFTLTISSLEPEDFAVYYCQQRSNWHPTFGQGTKVEIK

Target: T1, human OX40 (CD134), full length, …
Assay: flow cytometry, blocking of OX40L-FLAG binding to activated human T cells
From the text: The activated T cells were also stained with mouse anti-human OX40 antibody L106 (Becton Dickinson), which was directly conjugated to phycoerythrin or whose binding was detected with anti-mouse IgG-PE (Southern Biotechnology Associates.) OX40L Blocking Assays: To determine if the anti-human OX40 antibodies could block OX40L binding to soluble OX40 both ELISA and flow cytometric protocols were used. In the ELISA 96 well Nunc flat bottom plates were coated with recombinant soluble hOX40:hFc at 2 μg/ml in carbonate buffer (pH9.4) for one hour at 37° C. The plates were washed with PBS/0.1% Tween 20 and Superblock (Pierce) was added to the wells to block non-specific binding. The test antibodies were diluted to 1 μg/ml in PBS/Tween and added to the plates. After one hour incubation at 37° C., FLAG tagged recombinant soluble human OX40L (Alexis Biochemicals, San Diego, Calif.) was added to the appropriate wells without washing out the anti-OX40 antibodies. Following one hour incubation, the plates were washed and an anti-FLAG-peroxidase conjugated antibody (Sigma) was added to the wells for one hour at 37° C. The TMB substrate was added, after ten minutes the reaction was stopped with H₂SO₄, and the results were read at 450 nm using a microplate reader. In the flow cytometric assay, human CD4+ T cells were purified and activated with PHA+IL2 for two days. The cells were washed and resuspended in staining buffer and then incubated with increasing amounts of human anti-human OX40 antibodies for twenty minutes on ice, from 0.005-50 μg/ml. Soluble recombinant OX40L-FLAG was then added to the cells. The cells were washed and incubated with anti-FLAG conjugated to PE (Sigma). After another wash, the cells were fixed with 1% paraformaldehyde and analyzed on a FACScan or FACScalibur.
Slightly different results were obtained when a flow cytometric based assay was used to monitor blockade of soluble OX40L binding to activated human T cells that express OX40 (FIG. 5B). Activated human T cells were labeled with anti-OX40 antibodies followed by soluble flag tagged-human OX40L. Binding of OX40L was detected with anti-FLAG-PE antibody. Percent inhibition was determined using the same formula, i.e., (100−(sample/maximum binding))*100.

Binder	IC50 [µg/mL]
B1	0.9
B2	0.91
